The target of assay [1] is T1, human EphB1 extracellular region-SEAP-His protein (human, UniProt P54762 18-540).
T1 construct: extracellular domain; also called hEphB1-SEAP-His
T1 sequence (looked up): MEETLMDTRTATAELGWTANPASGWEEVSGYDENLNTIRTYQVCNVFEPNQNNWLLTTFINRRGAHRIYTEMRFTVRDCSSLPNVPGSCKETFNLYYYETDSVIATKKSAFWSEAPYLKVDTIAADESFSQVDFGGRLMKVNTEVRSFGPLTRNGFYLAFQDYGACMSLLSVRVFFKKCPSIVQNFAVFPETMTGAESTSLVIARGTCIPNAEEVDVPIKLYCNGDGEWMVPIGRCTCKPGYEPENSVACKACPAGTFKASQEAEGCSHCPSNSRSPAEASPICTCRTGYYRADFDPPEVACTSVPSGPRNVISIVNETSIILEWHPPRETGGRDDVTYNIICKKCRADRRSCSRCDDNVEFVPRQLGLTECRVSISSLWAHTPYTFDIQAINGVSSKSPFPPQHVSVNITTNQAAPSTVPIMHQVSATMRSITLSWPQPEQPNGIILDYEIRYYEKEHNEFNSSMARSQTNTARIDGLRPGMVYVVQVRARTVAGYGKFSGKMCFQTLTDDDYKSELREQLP
Nature of the assay: ELISA. For orientation: An ELISA detects its analyte on a solid surface through an enzyme-linked reagent.

In assay [2] the target is T2, human EphA4 extracellular region-SEAP-His protein (human, UniProt P54764 20-547).
T2 construct: also called hEphA4-SEAP-His
T2 sequence (P54764 20-547): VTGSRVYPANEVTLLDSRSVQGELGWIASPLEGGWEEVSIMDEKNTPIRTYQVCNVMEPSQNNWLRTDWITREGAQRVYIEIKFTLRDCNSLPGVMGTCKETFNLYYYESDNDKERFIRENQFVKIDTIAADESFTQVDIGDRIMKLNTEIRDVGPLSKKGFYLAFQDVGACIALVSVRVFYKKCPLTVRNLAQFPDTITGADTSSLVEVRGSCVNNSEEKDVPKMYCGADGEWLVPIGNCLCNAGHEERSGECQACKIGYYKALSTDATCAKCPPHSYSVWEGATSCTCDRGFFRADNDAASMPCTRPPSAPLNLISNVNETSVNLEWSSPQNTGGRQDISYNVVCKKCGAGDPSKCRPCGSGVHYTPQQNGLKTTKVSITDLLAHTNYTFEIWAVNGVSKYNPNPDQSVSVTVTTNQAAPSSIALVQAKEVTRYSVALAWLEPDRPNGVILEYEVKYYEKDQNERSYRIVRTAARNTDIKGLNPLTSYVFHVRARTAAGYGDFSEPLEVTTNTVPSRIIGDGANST
Nature of the assay: competition ELISA, competitor human Ephrin A5-Fc. In a few lines:
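Anti-alkaline phosphatase-coated plates captured EphA4-SEAP-His (10 nM final), then antibody (0–3000 nM serial dilutions) and biotinylated Ephrin A5-Fc (0.7 nM final) were co-added for 1 h at room temperature. Bound ligand detected with HRP-streptavidin and TMBZ, stopped with 1N H₂SO₄, A450 read.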

Assay [3] has as its target T2, human EphA4 extracellular …. The assay can be described thus: SPR, Ab captured. In short, it runs like this: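 Antibodies captured (~30–60 RU) on a protein A chip, or for antibody A on immobilized rat anti-mouse IgG1, in HBS-EP. Human EphA4 extracellular region-SEAP-His at 0.6–50 nM injected in ascending order without regeneration, with 120 s association and 900 s dissociation. KD=kd/ka from 1:1 binding model fits.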
For orientation: SPR reads the build-up and loss of mass on a sensor chip optically.

B1: humanized antibody No. 139 (antibody, human IgG2)
heavy: QVQLVQSGSELKKPGASVKVSCKASGYTFTDYSMHWVRQAPGQGLEWMGWINTETGEPTYAQGFTGRFVFSLDTSVSTAYLQISSLKAEDTAVYYCARIPLYYYGSRYWYFDVWGQGTTVTVSSASTKGPSVFPLAPSSRSTSESTAALGCLVKDYFPEPVTVSWNSGALTSGVHTFPAVLQSSGLYSLSSVVTVPSSNFGTQTYTCNVDHKPSNTKVDKTVERKSCVECPPCPAPPAAAPSVFLFPPKPKDTLMISRTPEVTCVVVDVSHEDPEVQFNWYVDGVEVHNAKTKPREEQFNSTFRVVSVLTVVHQDWLNGKEYKCKVSNKGLPAPIEKTISKTKGQPREPQVYTLPPSREEMTKNQVSLTCLVKGFYPSDIAVEWESNGQPENNYKTTPPMLDSDGSFFLYSKLTVDKSRWQQGNVFSCSVMHEALHNHYTQKSLSLSPG
light: DIQMTQSPSSLSASVGDRVTITCRASENIYRNLAWYQQKPGKAPKLLVYAATNLADGVPSRFSGSGSGTDYTLTISSLQPEDFATYYCQHFWGTPWTFGQGTKVEIKRTVAAPSVFIFPPSDEQLKSGTASVVCLLNNFYPREAKVQWKVDNALQSGNSQESVTEQDSKDSTYSLSSTLTLSKADYEKHKVYACEVTHQGLSSPVTKSFNRGEC
notes: human Ig kappa; also called L1-4/HA1
B1: the “A450 as % of hEphA4-SEAP-His” value in assay [1] amounted to 5.5%. This molecule also showed an IC50 in assay [2] of 3.3 nM. In assay [3], binding was characterised by a dissociation constant (Kd) of 1.4 nM, the koff turned out to be 0.00053 s⁻¹ and the kon is 370000 M⁻¹ s⁻¹.

B2: humanized antibody No. 144 (antibody, human IgG2)
heavy: QVQLVQSGSELKKPGASVKVSCKASGYTFTDYSMHWVRQAPGQGLEWMGWINTETGEPTYADDFKGRFVFSLDTSVSTAYLQISSLKAEDTAVYYCARIPLYYYGSRYWYFDVWGQGTTVTVSSASTKGPSVFPLAPSSRSTSESTAALGCLVKDYFPEPVTVSWNSGALTSGVHTFPAVLQSSGLYSLSSVVTVPSSNFGTQTYTCNVDHKPSNTKVDKTVERKSCVECPPCPAPPAAAPSVFLFPPKPKDTLMISRTPEVTCVVVDVSHEDPEVQFNWYVDGVEVHNAKTKPREEQFNSTFRVVSVLTVVHQDWLNGKEYKCKVSNKGLPAPIEKTISKTKGQPREPQVYTLPPSREEMTKNQVSLTCLVKGFYPSDIAVEWESNGQPENNYKTTPPMLDSDGSFFLYSKLTVDKSRWQQGNVFSCSVMHEALHNHYTQKSLSLSPG
light: DIQMTQSPSSLSASVGDRVTITCRASENIYRNLAWYQQKPGKAPQLLLYAATNLADGVPSRFSGSGSGTDYTLTISSLQPEDFATYYCQHFWGTPWTFGQGTKVEIKRTVAAPSVFIFPPSDEQLKSGTASVVCLLNNFYPREAKVQWKVDNALQSGNSQESVTEQDSKDSTYSLSSTLTLSKADYEKHKVYACEVTHQGLSSPVTKSFNRGEC
notes: human Ig kappa; also called L1-6/HK1
As for B2, the “A450 as % of hEphA4-SEAP-His” value in assay [1] is 5.7%. Besides, in assay [2], the IC50 was 3.6 nM. In assay [3], this molecule displayed a Kd of 2 nM, a koff of 0.00078 s⁻¹ and a kon of 400000 M⁻¹ s⁻¹.

B3: humanized antibody No. 142 (antibody, human IgG2)
heavy: QVQLVQSGSELKKPGASVKVSCKASGYTFTDYSMHWVRQAPGQGLKWMGWINTETGEPTYADDFKGRFVFSLDTSVSTAYLQISSLKAEDTAVYYCARIPLYYYGSRYWYFDVWGQGTTVTVSSASTKGPSVFPLAPSSRSTSESTAALGCLVKDYFPEPVTVSWNSGALTSGVHTFPAVLQSSGLYSLSSVVTVPSSNFGTQTYTCNVDHKPSNTKVDKTVERKSCVECPPCPAPPAAAPSVFLFPPKPKDTLMISRTPEVTCVVVDVSHEDPEVQFNWYVDGVEVHNAKTKPREEQFNSTFRVVSVLTVVHQDWLNGKEYKCKVSNKGLPAPIEKTISKTKGQPREPQVYTLPPSREEMTKNQVSLTCLVKGFYPSDIAVEWESNGQPENNYKTTPPMLDSDGSFFLYSKLTVDKSRWQQGNVFSCSVMHEALHNHYTQKSLSLSPG
light: DIQMTQSPSSLSASVGDRVTITCRASENIYRNLAWYQQKPGKAPKLLVYAATNLADGVPSRFSGSGSGTDYTLTISSLQPEDFATYYCQHFWGTPWTFGQGTKVEIKRTVAAPSVFIFPPSDEQLKSGTASVVCLLNNFYPREAKVQWKVDNALQSGNSQESVTEQDSKDSTYSLSSTLTLSKADYEKHKVYACEVTHQGLSSPVTKSFNRGEC
notes: human Ig kappa; also called L1-4/HK2
B3: in assay [1], the “A450 as % of hEphA4-SEAP-His” value was found to be 5.6%. The same molecule gave an IC50 in assay [2] of 3.7 nM. In assay [3], this molecule displayed a Kd of 1.5 nM, an off-rate (koff) of 0.0005 s⁻¹ and a kon of 340000 M⁻¹ s⁻¹.

B4: humanized antibody No. 143 (antibody, human IgG2)
heavy: QIQLVQSGSELKKPGASVKVSCKASGYTFTDYSMHWVRQAPGQGLKWMGWINTETGEPTYADDFKGRFVFSLDTSVSTAYLQISSLKAEDTAVYYCARIPLYYYGSRYWYFDVWGQGTTVTVSSASTKGPSVFPLAPSSRSTSESTAALGCLVKDYFPEPVTVSWNSGALTSGVHTFPAVLQSSGLYSLSSVVTVPSSNFGTQTYTCNVDHKPSNTKVDKTVERKSCVECPPCPAPPAAAPSVFLFPPKPKDTLMISRTPEVTCVVVDVSHEDPEVQFNWYVDGVEVHNAKTKPREEQFNSTFRVVSVLTVVHQDWLNGKEYKCKVSNKGLPAPIEKTISKTKGQPREPQVYTLPPSREEMTKNQVSLTCLVKGFYPSDIAVEWESNGQPENNYKTTPPMLDSDGSFFLYSKLTVDKSRWQQGNVFSCSVMHEALHNHYTQKSLSLSPG
light: DIQMTQSPSSLSASVGDRVTITCRASENIYRNLAWYQQKPGKAPKLLVYAATNLADGVPSRFSGSGSGTDYTLTISSLQPEDFATYYCQHFWGTPWTFGQGTKVEIKRTVAAPSVFIFPPSDEQLKSGTASVVCLLNNFYPREAKVQWKVDNALQSGNSQESVTEQDSKDSTYSLSSTLTLSKADYEKHKVYACEVTHQGLSSPVTKSFNRGEC
notes: human Ig kappa; also called L1-4/HK4
Turning to B4, the “A450 as % of hEphA4-SEAP-His” value in assay [1] was determined as 5.9%. The molecule further returned an IC50 in assay [2] of 5.3 nM. In assay [3], this molecule displayed a Kd of 1.5 nM, a koff of 0.00051 s⁻¹ and a kon of 350000 M⁻¹ s⁻¹.

B5: humanized antibody No. 141 (antibody, human IgG2)
heavy: QVQLVQSGSELKKPGASVKVSCKASGYTFTDYSMHWVRQAPGQGLEWMGWINTETGEPTYADDFKGRFVFSLDTSVSTAYLQISSLKAEDTAVYYCARIPLYYYGSRYWYFDVWGQGTTVTVSSASTKGPSVFPLAPSSRSTSESTAALGCLVKDYFPEPVTVSWNSGALTSGVHTFPAVLQSSGLYSLSSVVTVPSSNFGTQTYTCNVDHKPSNTKVDKTVERKSCVECPPCPAPPAAAPSVFLFPPKPKDTLMISRTPEVTCVVVDVSHEDPEVQFNWYVDGVEVHNAKTKPREEQFNSTFRVVSVLTVVHQDWLNGKEYKCKVSNKGLPAPIEKTISKTKGQPREPQVYTLPPSREEMTKNQVSLTCLVKGFYPSDIAVEWESNGQPENNYKTTPPMLDSDGSFFLYSKLTVDKSRWQQGNVFSCSVMHEALHNHYTQKSLSLSPG
light: DIQMTQSPSSLSASVGDRVTITCRASENIYRNLAWYQQKPGKAPKLLVYAATNLADGVPSRFSGSGSGTDYTLTISSLQPEDFATYYCQHFWGTPWTFGQGTKVEIKRTVAAPSVFIFPPSDEQLKSGTASVVCLLNNFYPREAKVQWKVDNALQSGNSQESVTEQDSKDSTYSLSSTLTLSKADYEKHKVYACEVTHQGLSSPVTKSFNRGEC
notes: human Ig kappa; also called L1-4/HK1
B5: the “A450 as % of hEphA4-SEAP-His” value in assay [1] amounted to 5.4%. For the same molecule, the IC50 in assay [2] came to 3 nM. In assay [3], this molecule returned a Kd of 1.6 nM, a koff of 0.00062 s⁻¹ and a kon of 390000 M⁻¹ s⁻¹.

B6: humanized antibody No. 145 (antibody, human IgG2)
heavy: QVQLVQSGSELKKPGASVKVSCKASGYTFTDYSMHWVRQAPGQGLKWMGWINTETGEPTYADDFKGRFVFSLDTSVSTAYLQISSLKAEDTAVYYCARIPLYYYGSRYWYFDVWGQGTTVTVSSASTKGPSVFPLAPSSRSTSESTAALGCLVKDYFPEPVTVSWNSGALTSGVHTFPAVLQSSGLYSLSSVVTVPSSNFGTQTYTCNVDHKPSNTKVDKTVERKSCVECPPCPAPPAAAPSVFLFPPKPKDTLMISRTPEVTCVVVDVSHEDPEVQFNWYVDGVEVHNAKTKPREEQFNSTFRVVSVLTVVHQDWLNGKEYKCKVSNKGLPAPIEKTISKTKGQPREPQVYTLPPSREEMTKNQVSLTCLVKGFYPSDIAVEWESNGQPENNYKTTPPMLDSDGSFFLYSKLTVDKSRWQQGNVFSCSVMHEALHNHYTQKSLSLSPG
light: DIQMTQSPSSLSASVGDRVTITCRASENIYRNLAWYQQKPGKAPKLLLYAATNLADGVPSRFSGSGSGTDYTLTISSLQSEDFATYYCQHFWGTPWTFGQGTKVEIKRTVAAPSVFIFPPSDEQLKSGTASVVCLLNNFYPREAKVQWKVDNALQSGNSQESVTEQDSKDSTYSLSSTLTLSKADYEKHKVYACEVTHQGLSSPVTKSFNRGEC
notes: human Ig kappa; also called L1-5/HK2
For the molecule B6, in assay [1], the “A450 as % of hEphA4-SEAP-His” value was determined as 6.5%. Besides, the IC50 in assay [2] stood at 3.7 nM. Further, in assay [3], binding was put at a Kd of 2 nM, the koff stood at 0.00065 s⁻¹ and the kon was 330000 M⁻¹ s⁻¹.

As a reminder, the IC50 is the concentration needed to halve the response being measured. Higher therefore signals weaker potency. What is called Kd is the constant that tells how readily two partners part at equilibrium. A high value points to a looser complex. As usually defined, the koff is the first-order rate constant of dissociation. For orientation: kon means the rate constant with which the complex forms. A low value points to slower complex formation.

Values taken from patent US20190077860A1 (EISAI R AND D MANAGEMENT, published 2019).
